# Experimental data: paper doi:10.1101/2022.08.19.504623
# Values joined by “and” are separate entries in the source; they are usually repeats but may differ in a detail not shown here. Identical values can stand only once.
# How the values were obtained:
# [1] = target: FlaK D236A with a C-terminal His6-tag (Vibrio alginolyticus); experiment: cross-linking
# [2] = target: FlaK E237Q with a C-terminal His6-tag (Vibrio alginolyticus); experiment: cross-linking
# [3] = target: FlaK I365E with a C-terminal His6-tag (Vibrio alginolyticus); experiment: SEC
# [4] = target: FlaK I365E with a C-terminal His6-tag (Vibrio alginolyticus); experiment: cross-linking
# [5] = target: FlaK K171A with a C-terminal His6-tag (Vibrio alginolyticus); experiment: SEC
# [6] = target: FlaK K171A with a C-terminal His6-tag (Vibrio alginolyticus); experiment: cross-linking
# [7] = target: FlaK K171A with a C-terminal His6-tag (Vibrio alginolyticus); experiment: cross-linking + SEC
# [8] = target: FlaK L371E with a C-terminal His6-tag (Vibrio alginolyticus); experiment: cross-linking
# [9] = target: FlaK Q140E with a C-terminal His6-tag (Vibrio alginolyticus); experiment: cross-linking
# [10] = target: FlaK, wild type, with a C-terminal His6-tag (Vibrio alginolyticus); experiment: SEC
# [11] = target: FlaK, wild type, with a C-terminal His6-tag (Vibrio alginolyticus); experiment: cross-linking
# [12] = target: FlaK, wild type, with a C-terminal His6-tag (Vibrio alginolyticus); experiment: cross-linking + SEC
substance,measurement,setting,value
FlaK D236A with a C-terminal His6-tag (natural protein),stoichiometry N,[1],2
FlaK E237Q with a C-terminal His6-tag (natural protein),stoichiometry N,[2],2
FlaK I365E with a C-terminal His6-tag (natural protein),stoichiometry N,[3],2
same,stoichiometry N,[4],2
FlaK K171A with a C-terminal His6-tag (natural protein),stoichiometry N,[5],2
same,stoichiometry N,[6],2
same,stoichiometry N,[7],4 and 6
FlaK L371E with a C-terminal His6-tag (natural protein),stoichiometry N,[8],2
FlaK Q140E with a C-terminal His6-tag (natural protein),stoichiometry N,[9],2
"FlaK, wild type, with a C-terminal His6-tag (natural protein)",stoichiometry N,[10],2
same,stoichiometry N,[11],2
same,stoichiometry N,[12],4 and 6
